From patent US20180339057A1 (Novo Nordisk, published 2018) come the findings set out here.

Changes are numbered by the printed parent chain. In names and notes the source's numbering stands.

The labels stand for the following.
B1: (AEE)6AES-MIC-1 (ligand)
chain: AEEAEEAEEAEEAEEAEEAESGDHCPLGPGRCCRLHTVRASLEDLGWADWVLSPREVQVTMCIGACPSQFRAANMHAQIKTSLHRLKPDTVPAPCCVPASYNPMVLIQKTDTGVSLQTYDDLLAKDCHCI
B2: SPAGSPTSTEEGTSESATPESGPG-MIC-1(SEQ ID NO: 1) (ligand)
chain: SPAGSPTSTEEGTSESATPESGPGARNGDHCPLGPGRCCRLHTVRASLEDLGWADWVLSPREVQVTMCIGACPSQFRAANMHAQIKTSLHRLKPDTVPAPCCVPASYNPMVLIQKTDTGVSLQTYDDLLAKDCHCI
B3: …-MIC-1-Δ1-3 (ligand)
chain: SEPATSGSETPGTSTEPSEGSAPGGDHCPLGPGRCCRLHTVRASLEDLGWADWVLSPREVQVTMCIGACPSQFRAANMHAQIKTSLHRLKPDTVPAPCCVPASYNPMVLIQKTDTGVSLQTYDDLLAKDCHCI
B4: (SEPATSGSETPG)2-MIC-1-Δ1-3(M57E) (ligand)
chain: B3 chain with T13S, S14E, T15P, E16A, P17T, E19G, G20S, S21E, A22T, M78E
B5: (SEPATSGSETPG)2-MIC-1-Δ1-3 (ligand)
chain: B3 chain with T13S, S14E, T15P, E16A, P17T, E19G, G20S, S21E, A22T
B6: (SEPATSGSETPG)2-MIC-1-Δ1-3(M57L) (ligand)
chain: B3 chain with T13S, S14E, T15P, E16A, P17T, E19G, G20S, S21E, A22T, M78L
B7: AASPAGSPTSTEEGTSESATPESGPG-MIC-1(SEQ ID NO: 1) (ligand)
chain: AASPAGSPTSTEEGTSESATPESGPGARNGDHCPLGPGRCCRLHTVRASLEDLGWADWVLSPREVQVTMCIGACPSQFRAANMHAQIKTSLHRLKPDTVPAPCCVPASYNPMVLIQKTDTGVSLQTYDDLLAKDCHCI
B8: (GEPS)5-MIC-1(SEQ ID NO: 1) (ligand)
chain: GEPSGEPSGEPSGEPSGEPSARNGDHCPLGPGRCCRLHTVRASLEDLGWADWVLSPREVQVTMCIGACPSQFRAANMHAQIKTSLHRLKPDTVPAPCCVPASYNPMVLIQKTDTGVSLQTYDDLLAKDCHCI
B9: AASPAGSPTSTEEGTSESATPESGPG-MIC-1-Δ1-3 (ligand)
chain: AASPAGSPTSTEEGTSESATPESGPGGDHCPLGPGRCCRLHTVRASLEDLGWADWVLSPREVQVTMCIGACPSQFRAANMHAQIKTSLHRLKPDTVPAPCCVPASYNPMVLIQKTDTGVSLQTYDDLLAKDCHCI
B10: AAPEDEETPEQEGSGSGSGSGS-MIC-1-Δ1-3 (ligand)
chain: AAPEDEETPEQEGSGSGSGSGSGDHCPLGPGRCCRLHTVRASLEDLGWADWVLSPREVQVTMCIGACPSQFRAANMHAQIKTSLHRLKPDTVPAPCCVPASYNPMVLIQKTDTGVSLQTYDDLLAKDCHCI
B11: AAPDEGTEEETEGSGSGSGSGS-MIC-1-Δ1-3 (ligand)
chain: B10 chain with E4D, D5E, E6G, E7T, T8E, P9E, Q11T
B12: (AEE)2AES-MIC-1-Δ1-3 (ligand)
chain: AEEAEEAESGDHCPLGPGRCCRLHTVRASLEDLGWADWVLSPREVQVTMCIGACPSQFRAANMHAQIKTSLHRLKPDTVPAPCCVPASYNPMVLIQKTDTGVSLQTYDDLLAKDCHCI
B13: (AEE)3AES-MIC-1-Δ1-3 (ligand)
chain: AEEAEEAEEAESGDHCPLGPGRCCRLHTVRASLEDLGWADWVLSPREVQVTMCIGACPSQFRAANMHAQIKTSLHRLKPDTVPAPCCVPASYNPMVLIQKTDTGVSLQTYDDLLAKDCHCI
B14: AAPEDEETPEQE-MIC-1-Δ1-3 (ligand)
chain: B13 chain with E2A, E3P, A4E, E5D, A7E, E8T, E9P, A10E, E11Q, S12E
B15: (AEE)5AES-MIC-1-Δ1-3 (ligand)
chain: AEEAEEAEEAEEAEEAESGDHCPLGPGRCCRLHTVRASLEDLGWADWVLSPREVQVTMCIGACPSQFRAANMHAQIKTSLHRLKPDTVPAPCCVPASYNPMVLIQKTDTGVSLQTYDDLLAKDCHCI
B16: TSESATPESGPGTSESATPESGPG-MIC-1(R2A,N3E) (ligand)
chain: TSESATPESGPGTSESATPESGPGAAEGDHCPLGPGRCCRLHTVRASLEDLGWADWVLSPREVQVTMCIGACPSQFRAANMHAQIKTSLHRLKPDTVPAPCCVPASYNPMVLIQKTDTGVSLQTYDDLLAKDCHCI
B17: MIC-1(R2A,N3E,H18E) (ligand)
chain: AAEGDHCPLGPGRCCRLETVRASLEDLGWADWVLSPREVQVTMCIGACPSQFRAANMHAQIKTSLHRLKPDTVPAPCCVPASYNPMVLIQKTDTGVSLQTYDDLLAKDCHCI
B18: MIC-1(R2A,N3E,A30E) (ligand)
chain: B17 chain with E18H, A30E
B19: MIC-1(R2A,N3E,P11E) (ligand)
chain: B17 chain with P11E, E18H
B20: MIC-1(R2A,N3E,R53E) (ligand)
chain: B17 chain with E18H, R53E
B21: MIC-1(R2A,N3E,L105E) (ligand)
chain: B17 chain with E18H, L105E
B22: MIC-1(R2A,N3E,K69E) (ligand)
chain: B17 chain with E18H, K69E
B23: MIC-1(R2A, N3E) (ligand)
chain: B17 chain with E18H
B24: MIC-1(R2A,N3E,A54E) (ligand)
chain: B17 chain with E18H, A54E
B25: MIC-1(R2A,N3E,M57E) (ligand)
chain: B17 chain with E18H, M57E
B26: MIC-1(R2A,N3E,R67E) (ligand)
chain: B17 chain with E18H, R67E
B27: MIC-1(R2A,N3E,A47E) (ligand)
chain: B17 chain with E18H, A47E
B28: MIC-1(R2A,N3E,L68E) (ligand)
chain: B17 chain with E18H, L68E
B29: MIC-1(R2A,N3E,P85E) (ligand)
chain: B17 chain with E18H, P85E
B30: MIC-1(R2A,N3E,R21E) (ligand)
chain: B17 chain with E18H, R21E
B31: MIC-1(R2A,N3E,K107E) (ligand)
chain: B17 chain with E18H, K107E
B32: AES-MIC-1-Δ1-3 (ligand)
chain: B17 chain with A2E, E3S, E18H
B33: AEEAES-MIC-1-Δ1-3 (ligand)
chain: AEEAESGDHCPLGPGRCCRLHTVRASLEDLGWADWVLSPREVQVTMCIGACPSQFRAANMHAQIKTSLHRLKPDTVPAPCCVPASYNPMVLIQKTDTGVSLQTYDDLLAKDCHCI

This test concerns the target T1, human MIC-1 receptor (hGFRAL, GDNF family receptor alpha like), full length (human, UniProt Q6UXV0 19-394).
T1 sequence (looked up): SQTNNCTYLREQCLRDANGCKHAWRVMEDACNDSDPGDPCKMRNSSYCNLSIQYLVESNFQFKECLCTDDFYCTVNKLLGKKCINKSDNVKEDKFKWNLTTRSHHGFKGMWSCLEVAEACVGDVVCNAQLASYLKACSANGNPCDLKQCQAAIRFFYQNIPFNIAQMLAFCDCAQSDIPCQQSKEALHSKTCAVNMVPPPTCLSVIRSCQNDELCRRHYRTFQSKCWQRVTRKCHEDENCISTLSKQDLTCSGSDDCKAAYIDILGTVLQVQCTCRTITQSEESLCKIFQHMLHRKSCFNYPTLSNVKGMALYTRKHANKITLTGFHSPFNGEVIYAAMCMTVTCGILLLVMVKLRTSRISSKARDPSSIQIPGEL
Briefly: cell-based or functional assay.
Take B1: the “Emax (%)” value worked out at 100% and the “pERK EC50 (nM)” value came to 0.8 nM.
With B2, the “Emax (%)” value amounted to 100% and the “pERK EC50 (nM)” value came out at 0.4 nM.
Take B3: the “Emax (%)” value stood at 100% and the “pERK EC50 (nM)” value came to 0.7 nM.
For B4, in that order: 60% and 0.6 nM.
As to B5, the “Emax (%)” value was determined as 100% and the “pERK EC50 (nM)” value turned out to be 0.4 nM.
The like results for B6 were, in that order, 100% and 0.6 nM.
For B7, in that order: 100% and 0.4 nM.
For B8, in that order: 100% and 0.5 nM.
In the case of B9, the “Emax (%)” value worked out at 100% and the “pERK EC50 (nM)” value is 0.7 nM.
For the molecule B10, the “Emax (%)” value turned out to be 100% and the “pERK EC50 (nM)” value came to 0.5 nM.
For B11, in that order: 100% and 0.5 nM.
For B12, the “Emax (%)” value stood at 100% and the “pERK EC50 (nM)” value is 0.4 nM.
In the case of B13, the “Emax (%)” value worked out at 100% and the “pERK EC50 (nM)” value is 0.5 nM.
Turning to B14, the “Emax (%)” value came to 100% and the “pERK EC50 (nM)” value came to 0.5 nM.
Turning to B15, the “Emax (%)” value came to 100% and the “pERK EC50 (nM)” value worked out at 0.5 nM.
The like results for B16 were, in that order, 100% and 0.3 nM.
The like results for B17 were, in that order, 100% and 0.5 nM.
The like results for B18 were, in that order, 100% and 0.7 nM.
For B19, the “Emax (%)” value turned out to be 100% and the “pERK EC50 (nM)” value came to 0.4 nM.
Consider B20, for which the “Emax (%)” value was 100% and the “pERK EC50 (nM)” value was determined as 0.4 nM.
For B21, in that order: 100% and 0.7 nM.
Take B22: the “Emax (%)” value worked out at 100% and the “pERK EC50 (nM)” value worked out at 0.5 nM.
With B23, the “Emax (%)” value is 100% and the “pERK EC50 (nM)” value came out at 0.3 nM.
For B24, in that order: 100% and 0.3 nM.
The like results for B25 were, in that order, 70% and 0.3 nM.
For B26, the “Emax (%)” value stood at 100% and the “pERK EC50 (nM)” value is 0.5 nM.
For B27, in that order: 100% and 0.4 nM.
For B28, the “Emax (%)” value stood at 100% and the “pERK EC50 (nM)” value was found to be 0.8 nM.
With B29, the “Emax (%)” value was found to be 100% and the “pERK EC50 (nM)” value is 0.6 nM.
Take B30: the “Emax (%)” value was determined as 100% and the “pERK EC50 (nM)” value is 0.6 nM.
For B31, in that order: 100% and 0.3 nM.
The like results for B32 were, in that order, 100% and 0.3 nM.
With B33, the “Emax (%)” value amounted to 100% and the “pERK EC50 (nM)” value turned out to be 0.3 nM.
